First the molecules themselves.
T1: human GPVI (full-length) expressed on stably transfected rat basophilic RBL-2H3 cells (human, UniProt Q9HCN6 21-339)
T1 sequence (looked up): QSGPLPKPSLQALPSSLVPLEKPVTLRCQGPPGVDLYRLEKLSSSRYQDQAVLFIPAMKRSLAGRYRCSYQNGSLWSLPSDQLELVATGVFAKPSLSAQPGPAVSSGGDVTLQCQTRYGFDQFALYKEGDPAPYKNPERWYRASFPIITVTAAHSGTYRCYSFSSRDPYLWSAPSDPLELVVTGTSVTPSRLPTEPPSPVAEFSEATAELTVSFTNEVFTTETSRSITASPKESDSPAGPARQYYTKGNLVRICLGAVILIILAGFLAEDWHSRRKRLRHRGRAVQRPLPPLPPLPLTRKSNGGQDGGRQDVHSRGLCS

B1: Fab #2 comprising a modified heavy chain constant region (Fab, V domains shown)
VH: QVQLVESGGGLVKPGGSLRLSCAASGFSFSDHYMSWIRQAPGKGLEWVSSVGSEGKFIDYAASVKGRFTISRDNAKNSLYLQMNSLRAEDTAVYYCARHYREFRWHYYYFDYWGQGTLVTVSS
VL: QSVLTQPPSVSGAPGQRVTISCTGSSSNIGAGYDVHWYQQLPGTAPKLLIYGNSNRPSGVPDRFSGSKSGTSASLAITGLQAEDEADYYCQSHDLGAHVWVFGGGTKLTVLG
notes: Human Fab from the Ylanthia library; produced in HKB11 cells; also called Fab #2 mod; HC
B2: Fab #3 comprising a modified heavy chain constant region (Fab, V domains shown)
VH: QVQLVESGGGLVKPGGSLRLSCAASGFSFGDYYVSWIRQAPGKGLEWVSAIGGSGSAVQYAESVKGRFTISRDNAKNSLYLQMNSLRAEDTAVYYCARHYREFRWHYYYFDYWGQGTLVTVSS
VL: B1 VL
notes: Human Fab from the Ylanthia library; produced in HKB11 cells; also called Fab #3 mod; HC
B3: Fab #1 comprising a modified heavy chain constant region (Fab, V domains shown)
VH: QVQLVQSGAEVKKPGASVKVSCKASGYTFTSHYMHWVRQAPGQGLEWMGLIEPSEGETEYAQRFQGRVTMTRDTSTSTVYMELSSLRSEDTAVYYCARDSSRSYPLGFDIWGQGTLVTVSS
VL: QSVLTQPPSVSAAPGQKVTISCSGSSSNIGNNYVSWYQQLPGTAPKLLIYDNNKRPSGIPDRFSGSKSGTSATLGITGLQTEDEADYYCAAWDFRSSRWVFGGGTKLTVLG
notes: Human Fab from the Ylanthia library; produced in HKB11 cells; also called Fab #1 mod; HC
B4: Fab #4 comprising a modified heavy chain constant region (Fab, V domains shown)
VH: QVQLVQSGAEVKKPGASVKVSCKASGGAFTSSYMHWVRQAPGQGLEWMGIIEPTGASTLYAQRFQGRVTMTRDTSTSTVYMELSSLRSEDTAVYYCARTGIALPLGFDLWGQGTLVTVSS
VL: QSVLTQPPSVSAAPGQKVTISCSGSSSNIGNNYVSWYQQLPGTAPKLLIYDNNKRPSGIPDRFSGSKSGTSATLGITGLQTEDEADYYCAAWSTRFRWVFGGGTKLTVLG
notes: Human Fab from the Ylanthia library; produced in HKB11 cells; also called Fab #4 mod; HC
B5: Reference Control Antibody RefFab #1 (humanized GPVI antibody of WO2011073954A2, SANOFI) (Fab, V domains shown)
VH: EVQLLESGPGLVAPSGSLSITCTVSGFSLTGYGVNWVRQPPGKGLEWLGMIWGDGSTDYQSTLKSRLSISKDNSKSQVFLKMNSLRTDDTARYYCARDLPMDYWGLGTSVTVSS
VL: DIQMTQSPSSLSASVGGRVTITCKASQDINKYIAWYQHKPGKGPSLLIHYTSTLQPGVPSRFSGSGSGRDYSFSISNLQPEDIATYYCLQYANLLTFGGGTKLEIKR
notes: Cloned into mammalian Fab expression vectors; a glycine-serine linker (G4S)2 was added to the C-terminus of the Fab heavy chain

For one assay, the target named is T2, mouse GPVI extracellular domain fused at its C-terminus to human IgG1 Fc (GPVI-Fc) (mouse; human).
T2 construct: also called mGPVI; mouse GPVI-Fc
In words: Competition ELISA (MSD): mouse GPVI-Fc preincubated with Fab, then on coated rat-tail collagen (competitor). The procedure:
(§1) 1 or 10 μg/ml of recombinant GPVI collagen substrate (crosslinked collagen-related peptide (CRP-XL (Anaspec, Inc.), rat-tail collagen (Enzo Life Sciences) or VitroCol (Advanced BioMatrix, Inc.) was coated on a MSD-plate over night at 4° C., washed with PBST, blocked for 1 h at RT with PBS supplemented with 0.05% Tween-20 and 3% skim milk powder, and subsequently washed again with PBST. Purified recombinant GPVI antigens (human, cynomolgus monkey or mouse GPVI as prepared in Example 1) diluted in PBS and varying concentrations of Fab (comprising a modified heavy chain constant region) diluted in PBS (final concentration range 200-0.3 μg/ml) were incubated in a polypropylene plate for 30 min at RT. Fab/GPVI-Fc mixture was added to coated collagen substrate for 1 h at RT. After washing with PBST, bound GPVI form different species was detected using an ECL-conjugated detection antibody directed against human Fc (Jackson Immuno Research) for 1 h at RT. MSD read buffer (Meso Scale Discovery) was added prior to readout in a Sector Imager6000 (Meso Scale Discovery).
Take B1: the IC50 – broadly, the point on the concentration scale where inhibition reaches its midpoint – was 5.7 nM and the “Max. inhibition at 200 nM Fab [%]” value turned out to be 99%.
As to B2, the IC50 worked out at 5.3 nM and the “Max. inhibition at 200 nM Fab [%]” value turned out to be 99%.
Taken in the same sequence, the figures for B3 were 17.2 nM and 89%.
B4: the “Max. inhibition at 200 nM Fab [%]” value was 87%.

Another assay has as its target T3, human GPVI-1B extracellular domain fused at its C-terminus to human IgG1 Fc (GPVI-Fc) (human).
T3 construct: Low frequency haplotype 'b'; also called hGPVI-lb; hGPVI-1b
In words: ELISA, coated GPVI-Fc, Fab titrated. The procedure: (§2) 0.5-2 nM of recombinant GPVI-Fc-fusion proteins (as described in Example 1) were coated overnight on Maxisorp microtiter plates at 4° C. […] Following washing with PBST, Fabs (comprising a modified heavy chain constant region) serially diluted to concentrations in the range of 600 nM to 1 pM in PBST with 5% skim milk powder (MPBST) were added for 1 h at RT. Plates were washed with PBST. Bound Fab was detected using an alkaline phosphatase-conjugated detection antibody (Jackson Immuno Research) diluted in MPBST and directed against human F(ab′)2 fragment. After washing with TBS supplemented with 0.05% Tween-20 (TBST), AttoPhos substrate (Roche) diluted in ddH2O was added and fluorescence intensity measured at a Tecan Infinite 200Pro reader. EC50 values were calculated using Prism 5 software (GraphPad).
(ELISA stands for enzyme-linked immunosorbent assay.)
Consider B1, for which a half-maximal response (EC50) required 0.45 nM.
Same read-out and setting: the figure for B2 is 0.39 nM; for B3 it is 0.66 nM.
In the case of B5, the EC50 (as a rule, the midpoint of the concentration-response curve) was 1 nM.
The same measure, in the same setting: the figure for B4 is 0.48 nM.

A further assay concerns the target T2, mouse GPVI extracellular domain fused …. Put plainly: ELISA, coated GPVI-Fc, Fab titrated. The procedure:
as §2
In the case of B1, the EC50 is 6.55 nM.
Still for that read-out and setting: the figure for B2 is 1.36 nM; for B4 it is 1 nM.

The target in the next assay is T4, human GPVI-2A extracellular domain fused at its C-terminus to human IgG1 Fc (GPVI-Fc) (human).
T4 construct: Isoform 2, haplotype 'a'; also called hGPVI-2a
In words: ELISA, coated GPVI-Fc, Fab titrated. The procedure: as §2
Consider B1, for which the response was half-maximal at 0.65 nM (EC50).
Same read-out and setting: the same measure for B2: 0.48 nM; for B3: 0.93 nM.
Same read-out and setting: the figure for B5 is 1.43 nM; for B4 it is 0.74 nM.

The target of another assay is T5, human GPVI-1A extracellular domain fused at its C-terminus to human IgG1 Fc (GPVI-Fc) (human).
T5 construct: also called hGPVI-1a; hGPVI
In words: ELISA, coated GPVI-Fc, Fab titrated. The procedure: as §2
Consider B1, for which the EC50 came out at 0.41 nM.
Still for that read-out and setting: the figure for B2 is 0.35 nM; for B3 it is 0.46 nM; for B5 it is 0.93 nM.
Same read-out and setting: the same measure for B4: 0.41 nM.

A further assay deals with T6, cynomolgus monkey GPVI extracellular domain fused at its C-terminus to human IgG1 Fc (GPVI-Fc) (cynomolgus monkey; human).
T6 construct: also called cyGPVI-2; cyGPVI
In words: ELISA, coated GPVI-Fc, Fab titrated. The procedure:
as §2
B1: the EC50 was determined as 0.42 nM.
Still for that read-out and setting: the figure for B2 is 0.37 nM; for B3 it is 0.53 nM.
The same measure, in the same setting: the same measure for B5: 0.58 nM.
Molecule B4 gave an EC50 of 0.5 nM.

The next assay deals with T7, rat GPVI extracellular domain fused at its C-terminus to human IgG1 Fc (GPVI-Fc) (rat; human).
T7 construct: also called rGPVI
Put plainly: ELISA, coated GPVI-Fc, Fab titrated. The procedure: as §2
For the molecule B1, the EC50 was found to be 53.1 nM.
B2 gave a 50% effective concentration (EC50) of 9.65 nM.
For B3, the binding result is recorded as “binds”.
For B4, the response was half-maximal at 9.32 nM (EC50).

In the next assay the target is T6, cynomolgus monkey GPVI extracellular …. Put plainly: Competition ELISA (MSD): cynomolgus GPVI-Fc preincubated with Fab, then on coated rat-tail collagen (competitor). The procedure:
as §1
Take B1: the IC50 turned out to be 7.1 nM and the “Max. inhibition at 200 nM Fab [%]” value came to 100%.
B2: the IC50 is 7.6 nM and the “Max. inhibition at 200 nM Fab [%]” value turned out to be 99%.
In the same order, the values of B3 are 9.6 nM and 86%.
In the case of B5, the IC50 was 8.8 nM and the “Max. inhibition at 200 nM Fab [%]” value came to 99%.
In the same order, the values of B4 are 9.1 nM and 83%.

The target in the next assay is T1, human GPVI (full-length) expressed on …. Put plainly: cell-based or functional assay.
In the case of B1, the “Cell adhesion assay IC50 [nM], coated CRP-XL” value amounted to 1.59 nM; the “Cell adhesion assay IC50 [nM], coated VitroCol” value is 0.89 nM; the “Cell adhesion assay Max. inhibition at 200 nM Fab [%], coated CRP-XL” value amounted to 100%; the “Cell adhesion assay Max. inhibition at 200 nM Fab [%], coated VitroCol” value amounted to 93%.
Taken in the same sequence, the figures for B2 were 1.81 nM, 0.84 nM, 100% and 91%.
As to B3, the “Cell adhesion assay IC50 [nM], coated VitroCol” value turned out to be 0.58 nM and the “Cell adhesion assay Max. inhibition at 200 nM Fab [%], coated VitroCol” value was 55%.
Consider B5, for which the “Cell adhesion assay IC50 [nM], coated CRP-XL” value was determined as 2.69 nM; the “Cell adhesion assay IC50 [nM], coated VitroCol” value was 1.17 nM; the “Cell adhesion assay Max. inhibition at 200 nM Fab [%], coated CRP-XL” value came to 100%; the “Cell adhesion assay Max. inhibition at 200 nM Fab [%], coated VitroCol” value is 92%.
For the molecule B4, the “Cell adhesion assay IC50 [nM], coated VitroCol” value came out at 0.57 nM and the “Cell adhesion assay Max. inhibition at 200 nM Fab [%], coated VitroCol” value is 59%.

A further assay deals with T6, cynomolgus monkey GPVI extracellular …. Put plainly: Competition ELISA (MSD): cynomolgus GPVI-Fc preincubated with Fab, then on coated CRP-XL (competitor). The procedure: as §1
As to B1, the IC50 is 7.9 nM and the “Max. inhibition at 200 nM Fab [%]” value came to 100%.
In the same order, the values of B2 are 9.1 nM and 100%.
As to B3, the IC50 came out at 11.5 nM and the “Max. inhibition at 200 nM Fab [%]” value was determined as 59%.
In the same order, the values of B5 are 9.5 nM and 100%.
B4: the IC50 was found to be 11.3 nM and the “Max. inhibition at 200 nM Fab [%]” value is 51%.

For the next assay the target is unchanged. In words: Competition ELISA (MSD): cynomolgus GPVI-Fc preincubated with Fab, then on coated VitroCol (competitor). The procedure: as §1
Take B1: the IC50 came out at 4.3 nM and the “Max. inhibition at 200 nM Fab [%]” value turned out to be 100%.
In the same order, the values of B2 are 4.7 nM and 100%.
With B3, the IC50 was found to be 9.7 nM and the “Max. inhibition at 200 nM Fab [%]” value worked out at 84%.
Taken in the same sequence, the figures for B5 were 5.5 nM and 100%.
With B4, the half-inhibitory concentration (IC50) was 8.1 nM and the “Max. inhibition at 200 nM Fab [%]” value came to 91%.
